Measurements taken from US11292821B2, “Peptides and combination of peptides for use in immunotherapy against lung cancer, including NSCLC, SCLC and other cancers” (Immatics Biotechnologies GmbH, priority 2017, dated 2022).

Experiments:
CD8+ T cells = assay: In vitro T-cell priming assay with aAPCs (in vitro immunogenicity for MHC class I presented peptides); type: cell-based, human; details: in vitro immunogenicity, HLA B*07
HLA-B*07 = HLA-B*07 (Homo sapiens, UniProt P01889); assay: MHC binding assay (UV-ligand exchange, β2m ELISA)
Description: Candidate peptides for T cell based therapies according to the present invention were further tested for their MHC binding capacity (affinity). The individual peptide-MHC complexes were produced by UV-ligand exchange, where a UV-sensitive peptide is cleaved upon UV-irradiation, and exchanged with the peptide of interest as analyzed. Only peptide candidates that can effectively bind and stabilize the peptide-receptive MHC molecules prevent dissociation of the MHC complexes. To determine the yield of the exchange reaction, an ELISA was performed based on the detection of the light chain (β2m) of stabilized MHC complexes. The assay was performed as generally described in Rodenko et al. (Rodenko et al., 2006).
96 well MAXISorp plates (NUNC) were coated over night with 2 ug/ml streptavidin in PBS at room temperature, washed 4× and blocked for 1 h at 37° C. in 2% BSA containing blocking buffer. […] Peptide-MHC monomers of the UV-exchange reaction were diluted 100-fold in blocking buffer. Samples were incubated for 1 h at 37° C., washed four times, incubated with 2 ug/ml HRP conjugated anti-β2m for 1h at 37° C., washed again and detected with TMB solution that is stopped with […]. Absorption was measured at 450 nm. Candidate peptides that show a high exchange yield (preferably higher than 50%, most preferred higher than 75%) are generally preferred for a generation and production of antibodies or fragments thereof, and/or T cell receptors or fragments thereof, as they show sufficient avidity to the MHC molecules and prevent dissociation of the MHC complexes.

Row | Substance | Wells positive [%] (CD8+ T cells) | Peptide exchange (peptide exchange yield, MHC class I binding score) (HLA-B*07)
1 | 220 (SPSVSQLSVL; listed as Homo sapiens) [compound 220] | “++++” (>=70% = ++++) | “++++” (>75% = ++++)
2 | 232 (RPRALRDLQLL; listed as Homo sapiens) [compound 232] | “+++” (50%-69% = +++) | “++++” (>75% = ++++)
3 | 223 (YPKDIYSSF; listed as Homo sapiens) [compound 223] | “++” (20%-49% = ++) | “++++” (>75% = ++++)
4 | 242 (SPRWLPVSL; listed as Homo sapiens) [compound 242] | “++++” (>=70% = ++++) | “++++” (>75% = ++++)
5 | 221 (VPDVAQFVL; listed as Homo sapiens) [compound 221] | “++” (20%-49% = ++) | “++++” (>75% = ++++)
6 | 474 (LPRLLPAL; listed as Homo sapiens) [compound 474] | “+++” (50%-69% = +++) | “++++” (>75% = ++++)
7 | 247 (RALLARLLL; listed as Homo sapiens) [compound 247] |  | “+++” (>50 = +++)
8 | 259 (RPPAAGLRGISL; listed as Homo sapiens) [compound 259] |  | “++++” (>75% = ++++)
9 | 224 (GPQPWHAAL; listed as Homo sapiens) [compound 224] | “++” (20%-49% = ++) | “++++” (>75% = ++++)
10 | 250 (SPRDFLSGL; listed as Homo sapiens) [compound 250] | “+” (<20% = +) | “++++” (>75% = ++++)
11 | 290 (APYRPPDISL; listed as Homo sapiens) [compound 290] |  | “++++” (>75% = ++++)
12 | 463 (TPKAGPTL; listed as Homo sapiens) [compound 463] | “+” (<20% = +) | “++++” (>75% = ++++)
13 | 468 (SPMYGQAGL; listed as Homo sapiens) [compound 468] |  | “++++” (>75% = ++++)
14 | 281 (RPRAPVTPA; listed as Homo sapiens) [compound 281] |  | “++++” (>75% = ++++)
15 | 287 (APREEQQRSL; listed as Homo sapiens) [compound 287] |  | “+++” (>50 = +++)
16 | 274 (TPYQEHVAL; listed as Homo sapiens) [compound 274] | “+” (<20% = +) | “+++” (>50 = +++)
17 | 273 (MPLLWLRGF; listed as Homo sapiens) [compound 273] |  | “++” (>20% = ++)
18 | 268 (YPLFRGINL; listed as Homo sapiens) [compound 268] |  | “++++” (>75% = ++++)
19 | 475 (RPHKPGLYL; listed as Homo sapiens) [compound 475] |  | “++++” (>75% = ++++)
20 | 465 (VPRPIFSQL; listed as Homo sapiens) [compound 465] |  | “++++” (>75% = ++++)

Row | Substance | Wells positive [%] (CD8+ T cells) | Peptide exchange (peptide exchange yield, MHC class I binding score) (HLA-B*07)
21 | 470 (SPNSYFRVL; listed as Homo sapiens) [compound 470] |  | “++++” (>75% = ++++)
22 | 246 (TPLPAVIVL; listed as Homo sapiens) [compound 246] |  | “++++” (>75% = ++++)
23 | 227 (YPRGNHWAVGH; listed as Homo sapiens) [compound 227] |  | “++++” (>75% = ++++)
24 | 239 (YVPSASLFML; listed as Homo sapiens) [compound 239] |  | “++++” (>75% = ++++)
25 | 282 (MPQIETRVIL; listed as Homo sapiens) [compound 282] |  | “+++” (>50 = +++)
26 | 272 (MPLPWSLALPL; listed as Homo sapiens) [compound 272] |  | “++++” (>75% = ++++)
27 | 295 (KPEGTRIAV; listed as Homo sapiens) [compound 295] |  | “++++” (>75% = ++++)
28 | 236 (RVRGGEDGDRAL; listed as Homo sapiens) [compound 236] |  | “++++” (>75% = ++++)
29 | 245 (RIREHVPQL; listed as Homo sapiens) [compound 245] | “++” (20%-49% = ++) | “+++” (>50 = +++)
30 | 288 (FPQKFIDLL; listed as Homo sapiens) [compound 288] |  | “++” (>20% = ++)
31 | 293 (RPRSALPRLLLP; listed as Homo sapiens) [compound 293] | “++” (20%-49% = ++) | “++++” (>75% = ++++)
32 | 257 (LPRIPFADV; listed as Homo sapiens) [compound 257] |  | “++++” (>75% = ++++)
33 | 471 (KPRPDVTNEL; listed as Homo sapiens) [compound 471] |  | “++++” (>75% = ++++)
34 | 256 (SPRVPSIEL; listed as Homo sapiens) [compound 256] |  | “++++” (>75% = ++++)
35 | 289 (VPENHSVAL; listed as Homo sapiens) [compound 289] |  | “++++” (>75% = ++++)
36 | 469 (YPENGVVQM; listed as Homo sapiens) [compound 469] |  | “++” (>20% = ++)
37 | 238 (KPGPPWAAF; listed as Homo sapiens) [compound 238] |  | “++++” (>75% = ++++)
38 | 467 (KPFSSFTSM; listed as Homo sapiens) [compound 467] |  | “++++” (>75% = ++++)
39 | 234 (RAKNAGVTI; listed as Homo sapiens) [compound 234] |  | “++++” (>75% = ++++)
40 | 251 (VPRSSGQTV; listed as Homo sapiens) [compound 251] |  | “++++” (>75% = ++++)

Row | Substance | Wells positive [%] (CD8+ T cells) | Peptide exchange (peptide exchange yield, MHC class I binding score) (HLA-B*07)
41 | 286 (VPTLRSEL; listed as Homo sapiens) [compound 286] |  | “++++” (>75% = ++++)
42 | 267 (HPELVNHIVF; listed as Homo sapiens) [compound 267] |  | “++” (>20% = ++)
43 | 261 (APSARVGVC; listed as Homo sapiens) [compound 261] |  | “+++” (>50 = +++)
44 | 260 (YPQHPGLNA; listed as Homo sapiens) [compound 260] |  | “+++” (>50 = +++)
45 | 472 (NPRATDAQL; listed as Homo sapiens) [compound 472] |  | “++++” (>75% = ++++)
46 | 464 (YPRPGTPAA; listed as Homo sapiens) [compound 464] |  | “++++” (>75% = ++++)
47 | 280 (VPISEEGTPVL; listed as Homo sapiens) [compound 280] |  | “+++” (>50 = +++)
48 | 243 (RPIENRILIL; listed as Homo sapiens) [compound 243] |  | “++++” (>75% = ++++)
49 | 459 (RPMQQARAQL; listed as Homo sapiens) [compound 459] |  | “+++” (>50 = +++)
50 | 262 (SAYPQRLEI; listed as Homo sapiens) [compound 262] |  | “+” (>10% = +)
51 | 271 (MPLPWSLALP; listed as Homo sapiens) [compound 271] |  | “+++” (>50 = +++)
52 | 255 (MPLLENLYL; listed as Homo sapiens) [compound 255] |  | “++++” (>75% = ++++)
53 | 263 (HPAPYGDLL; listed as Homo sapiens) [compound 263] |  | “++++” (>75% = ++++)
54 | 240 (SPREVTTVL; listed as Homo sapiens) [compound 240] |  | “++++” (>75% = ++++)
55 | 284 (FPVTSIFHTF; listed as Homo sapiens) [compound 284] |  | “++” (>20% = ++)
56 | 235 (MPLKHYLLL; listed as Homo sapiens) [compound 235] |  | “++++” (>75% = ++++)
57 | 270 (APGPRFLVT; listed as Homo sapiens) [compound 270] |  | “++++” (>75% = ++++)
58 | 230 (VPLPAGGGTVL; listed as Homo sapiens) [compound 230] |  | “+++” (>50 = +++)
